B1: Gapdh (natural protein)
chain: not shown
notes: Gapdh, mouse, endogenous in forebrain; also called GAIT complex protein; source: endogenous, mouse forebrain lysate (WT or 4Eki)
B2: eIF4G (natural protein, mouse (endogenous in forebrain), UniProt Q6NZJ6 1-1600, looked up)
chain: MNKAPQPTGPPPARSPGLPQPAFPPGQTAPVVFSTPQATQMNTPSQPRQGGFRSLQHFYPSRAQPPSSAASRVQSAAPARPGPAPHVYPAGSQVMMIPSQISYSASQGAYYIPGQGRSTYVVPTQQYPVQPGAPGFYPGASPTEFGTYAGAYYPAQGVQQFPASVAPAPVLMNQPPQIAPKRERKTIRIRDPNQGGKDITEEIMSGARTASTPTPPQTGGSLEPQPNGESPQVAVIIRPDDRSQGAAIGGRPGLPGPEHSPGTESQPSSPSPTPSPPPILEPGSESNLGVLSIPGDTMTTGMIPMSVEESTPISCETGEPYCLSPEPTLAEPILEVEVTLSKPIPESEFSSSPLQVSTALVPHKVETHEPNGVIPSEDLEPEVESSTEPAPPPLSPCASESLVPIAPTAQPEELLNGAPSPPAVDLSPVSEPEEQAKKVSSAALASILSPAPPVAPSDTSPAQEEEMEEDDDDEEGGEAESEKGGEDVPLDSTPVPAQLSQNLEVAAATQVAVSVPKRRRKIKELNKKEAVGDLLDAFKEVDPAVPEVENQPPTGSNPSPESEGSMVPTQPEETEETWDSKEDKIHNAENIQPGEQKYEYKSDQWKPLNLEEKKRYDREFLLGFQFIFASMQKPEGLPHITDVVLDKANKTPLRQLDPSRLPGINCGPDFTPSFANLGRPALSNRGPPRGGPGGELPRGPAGLGPRRSQQGPRKETRKIISSVIMTEDIKLNKAEKAWKPSSKRTAADKDRGEEDADGSKTQDLFRRVRSILNKLTPQMFQQLMKQVTQLAIDTEERLKGVIDLIFEKAISEPNFSVAYANMCRCLMALKVPTTEKPTVTVNFRKLLLNRCQKEFEKDKDDDEVFEKKQKEMDEAATAEERGRLKEELEEARDIARRRSLGNIKFIGELFKLKMLTEAIMHDCVVKLLKNHDEESLECLCRLLTTIGKDLDFAKAKPRMDQYFNQMEKIIKEKKTSSRIRFMLQDVLDLRQSNWVPRRGDQGPKTIDQIHKEAEMEEHREHIKVQQLMAKGSDKRRGGPPGPPINRGLPLVDDGGWNTVPISKGSRPIDTSRLTKITKPGSIDSNNQLFAPGGRLSWGKGSSGGSGAKPSDTASEATRPATLNRFSALQQTLPAENTDNRRVVQRSSLSRERGEKAGDRGDRLERSERGGDRGDRLDRARTPATKRSFSKEVEERSRERPSQPEGLRKAASLTEDRGRDPVKREATLPPVSPPKAALSVDEVEKKSKAIIEEYLHLNDMKEAVQCVQELASPSLLFIFVRLGIESTLERSTIAREHMGRLLHQLLCAGHLSTAQYYQGLYETLELAEDMEIDIPHVWLYLAELITPILQEDGVPMGELFREITKPLRPMGKATSLLLEILGLLCKSMGPKKVGMLWREAGLSWREFLAEGQDVGSFVAEKKVEYTLGEESEAPGQRTLAFEELRRQLEKLLKDGGSNQRVFDWIDANLNEQQIASNTLVRALMTTVCYSAIIFETPLRVDVQVLKVRARLLQKYLCDEQKELQALYALQALVVTLEQPANLLRMFFDALYDEDVVKEDAFYSWESSKDPAEQQGKGVALKSVTAFFNWLREAEDEESDHN
notes: eIF4G, mouse, endogenous in forebrain; detected with an antibody against eIF4G1 (Cell Signaling Technology 2498); also called eIF4G1; scaffolding protein of eIF4F; source: endogenous, mouse forebrain lysate (WT or 4Eki)
B3: Eprs (natural protein, mouse (endogenous in forebrain), UniProt Q8CGC7 1-1512, looked up)
chain: MAALCLTVNAGNPPLEALLAVEHVKGDVSISVEEGKENLLRVSETVAFTDVNSILRYLARIATTSGLYGTNLMEHTEIDHWLEFSATKLSSCDRLTSAINELNHCLSLRTYLVGNSLTLADLCVWATLKGSAAWQEHLKQNKTLVHVKRWFGFLEAQQAFRSVGTKWDVSGNRATVAPDKKQDVGKFVELPGAEMGKVTVRFPPEASGYLHIGHAKAALLNQHYQVNFKGKLIMRFDDTNPEKEKEDFEKVILEDVAMLHIKPDQFTYTSDHFETIMKYAEKLIQEGKAYVDDTPAEQMKAEREQRTESKHRKNSVEKNLQMWEEMKKGSQFGQSCCLRAKIDMSSNNGCMRDPTLYRCKIQPHPRTGNKYNVYPTYDFACPIVDSIEGVTHALRTTEYHDRDEQFYWIIEALGIRKPYIWEYSRLNLNNTVLSKRKLTWFVNEGLVDGWDDPRFPTVRGVLRRGMTVEGLKQFIAAQGSSRSVVNMEWDKIWAFNKKVIDPVAPRYVALLKKEVVPVNVLDAQEEMKEVARHPKNPDVGLKPVWYSPKVFIEGADAETFSEGEMVTFINWGNINITKIHKNADGKITSLDAKLNLENKDYKKTTKITWLAESTHALSIPAVCVTYEHLITKPVLGKDEDFKQYINKDSKHEELMLGDPCLKDLKKGDIIQLQRRGFFICDQPYEPVSPYSCREAPCILIYIPDGHTKEMPTSGSKEKTKVEISKKETSSAPKERPAPAVSSTCATAEDSSVLYSRVAVQGDVVRELKAKKAPKEDIDAAVKQLLTLKAEYKEKTGQEYKPGNPSAAAVQTVSTKSSSNTVESTSLYNKVAAQGEVVRKLKAEKAPKAKVTEAVECLLSLKAEYKEKTGKDYVPGQPPASQNSHSNPVSNAQPAGAEKPEAKVLFDRVACQGEVVRKLKAEKASKDQVDSAVQELLQLKAQYKSLTGIEYKPVSATGAEDKDKKKKEKENKSEKQNKPQKQNDGQGKDSSKSQGSGLSSGGAGEGQGPKKQTRLGLEAKKEENLAEWYSQVITKSEMIEYYDVSGCYILRPWSYSIWESIKDFFDAEIKKLGVENCYFPIFVSQAALEKEKNHIEDFAPEVAWVTRSGKTELAEPIAIRPTSETVMYPAYAKWVQSHRDLPVRLNQWCNVVRWEFKHPQPFLRTREFLWQEGHSAFATFEEAADEVLQILELYARVYEELLAIPVVRGRKTEKEKFAGGDYTTTIEAFISASGRAIQGATSHHLGQNFSKMCEIVFEDPKTPGEKQFAYQCSWGLTTRTIGVMVMVHGDNMGLVLPPRVASVQVVVIPCGITNALSEEDREALMAKCNEYRRRLLGANIRVRVDLRDNYSPGWKFNHWELKGVPVRLEVGPRDMKSCQFVAVRRDTGEKLTIAEKEAEAKLEKVLEDIQLNLFTRASEDLKTHMVVSNTLEDFQKVLDAGKVAQIPFCGEIDCEDWIKKMTARDQDVEPGAPSMGAKSLCIPFNPLCELQPGAMCVCGKNPAKFYTLFGRSY
notes: Eprs (glutamyl-prolyl-tRNA synthetase), mouse, endogenous in forebrain; also called GAIT complex protein; source: endogenous, mouse forebrain lysate (WT or 4Eki)

How the values were obtained:
[1] = target: T1, eIF4E Ser209Ala (knock-in, 4Eki mice) (mouse (endogenous in forebrain), UniProt P63073 1-217, Ser209Ala); test: pull-down; cap-column pulldown: 500 ug forebrain lysate protein with 50 ul m7GDP agarose in buffer C (50 mM MOPS-KOH pH 7.4, 100 mM NaCl, 50 mM NaF, 0.5 mM EDTA, 0.5 mM EGTA, 0.1 mM GTP), 90 min at 4 C; eIF4E held by its ligand m7GDP; cap-bound fraction immunoblotted and quantified, normalised to input; conditions: partners not purified
T1 construct: The mice are described in Gkogkas et al., 2014; also called Ser209Ala mutant; source: endogenous (knock-in allele), 4Eki mouse forebrain lysate

[2] = target: T2, eukaryotic Initiation Factor 4E (eIF4E), wild type (mouse (endogenous in forebrain), UniProt P63073 1-217); test: as above; conditions: partners not purified
T2 construct: also called WT; source: endogenous, WT mouse forebrain lysate

Binder | cap-bound protein (arbitrary units, normalised to input) [1] | cap-bound protein (arbitrary units, normalised to input) [2]
B1 | 0.775 arbitrary units | –
B2 | 0.83 arbitrary units | 1 arbitrary units
B3 | – | 1 arbitrary units

Source: paper PMC5824745 (The Journal of Neuroscience, 2018)
